Data as given in publication PMC8876501, “Structural and Functional Insight into the Mechanism of Bacillus subtilis 6S-1 RNA Release from RNA Polymerase”.
Positions count from the first letter of the chain named. Numbers in names are those of the source.

What was measured:
[1] = target: T1, native sigmaA-RNA polymerase holoenzyme (Bacillus subtilis, UniProt P20429;P37870;P37871;P06224 1-314;1-1193;1-1199;1-371); experiment: EMSA; 5 mM Mg2+, heparin 80 ng/uL; 40 mM Tris-HCl pH 8.0, 5 mM MgCl2, 160 mM KCl, 1 mM DTT, heparin 80 ng/uL, ~10 nM RNA, plus RNAP storage buffer; 30 min at 37 C; native 7.5% PAGE (10% for Fig 12); conditions: protein: native, chain copies: 2;1;1;1, label: 5'-32P
T1 sequence (P20429 whole entry, chain 1 of 4): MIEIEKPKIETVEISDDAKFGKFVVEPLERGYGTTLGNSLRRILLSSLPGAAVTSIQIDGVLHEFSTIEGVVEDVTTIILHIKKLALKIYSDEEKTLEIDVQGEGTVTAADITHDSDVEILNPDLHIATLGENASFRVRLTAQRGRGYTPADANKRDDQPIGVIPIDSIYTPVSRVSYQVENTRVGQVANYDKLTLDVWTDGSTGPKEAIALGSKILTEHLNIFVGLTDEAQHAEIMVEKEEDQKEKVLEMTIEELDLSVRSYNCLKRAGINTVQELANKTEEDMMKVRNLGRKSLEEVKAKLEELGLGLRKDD
T1 sequence (P37870 whole entry, chain 2 of 4): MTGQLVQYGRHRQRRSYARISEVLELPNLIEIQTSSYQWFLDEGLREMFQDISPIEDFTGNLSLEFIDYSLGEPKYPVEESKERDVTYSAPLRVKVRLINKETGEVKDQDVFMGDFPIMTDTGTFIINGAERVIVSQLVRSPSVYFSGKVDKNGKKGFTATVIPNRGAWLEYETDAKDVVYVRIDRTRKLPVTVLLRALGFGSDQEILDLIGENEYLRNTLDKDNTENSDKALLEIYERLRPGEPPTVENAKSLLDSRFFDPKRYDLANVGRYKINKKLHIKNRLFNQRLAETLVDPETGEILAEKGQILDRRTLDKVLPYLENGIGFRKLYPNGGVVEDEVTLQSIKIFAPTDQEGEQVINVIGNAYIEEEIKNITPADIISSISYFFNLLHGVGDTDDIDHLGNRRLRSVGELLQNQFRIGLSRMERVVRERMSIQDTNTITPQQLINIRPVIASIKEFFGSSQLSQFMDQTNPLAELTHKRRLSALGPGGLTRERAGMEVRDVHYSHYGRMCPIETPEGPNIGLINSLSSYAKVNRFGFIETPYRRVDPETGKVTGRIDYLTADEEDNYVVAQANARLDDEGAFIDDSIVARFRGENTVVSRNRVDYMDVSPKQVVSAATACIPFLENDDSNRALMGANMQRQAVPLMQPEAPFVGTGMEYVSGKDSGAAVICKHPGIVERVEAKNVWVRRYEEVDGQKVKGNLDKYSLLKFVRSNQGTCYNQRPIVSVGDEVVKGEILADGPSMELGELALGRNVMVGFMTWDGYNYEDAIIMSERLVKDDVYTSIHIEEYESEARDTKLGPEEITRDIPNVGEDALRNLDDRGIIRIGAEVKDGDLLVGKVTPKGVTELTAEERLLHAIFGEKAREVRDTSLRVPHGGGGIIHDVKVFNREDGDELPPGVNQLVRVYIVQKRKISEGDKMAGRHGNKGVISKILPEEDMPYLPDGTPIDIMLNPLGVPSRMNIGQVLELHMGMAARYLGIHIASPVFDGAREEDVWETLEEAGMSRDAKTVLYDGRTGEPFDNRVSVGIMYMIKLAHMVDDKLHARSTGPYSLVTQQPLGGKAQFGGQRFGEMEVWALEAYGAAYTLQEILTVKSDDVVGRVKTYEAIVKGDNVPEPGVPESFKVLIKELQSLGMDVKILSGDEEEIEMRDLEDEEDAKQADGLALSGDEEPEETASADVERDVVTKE
T1 sequence (P37871 whole entry, chain 3 of 4): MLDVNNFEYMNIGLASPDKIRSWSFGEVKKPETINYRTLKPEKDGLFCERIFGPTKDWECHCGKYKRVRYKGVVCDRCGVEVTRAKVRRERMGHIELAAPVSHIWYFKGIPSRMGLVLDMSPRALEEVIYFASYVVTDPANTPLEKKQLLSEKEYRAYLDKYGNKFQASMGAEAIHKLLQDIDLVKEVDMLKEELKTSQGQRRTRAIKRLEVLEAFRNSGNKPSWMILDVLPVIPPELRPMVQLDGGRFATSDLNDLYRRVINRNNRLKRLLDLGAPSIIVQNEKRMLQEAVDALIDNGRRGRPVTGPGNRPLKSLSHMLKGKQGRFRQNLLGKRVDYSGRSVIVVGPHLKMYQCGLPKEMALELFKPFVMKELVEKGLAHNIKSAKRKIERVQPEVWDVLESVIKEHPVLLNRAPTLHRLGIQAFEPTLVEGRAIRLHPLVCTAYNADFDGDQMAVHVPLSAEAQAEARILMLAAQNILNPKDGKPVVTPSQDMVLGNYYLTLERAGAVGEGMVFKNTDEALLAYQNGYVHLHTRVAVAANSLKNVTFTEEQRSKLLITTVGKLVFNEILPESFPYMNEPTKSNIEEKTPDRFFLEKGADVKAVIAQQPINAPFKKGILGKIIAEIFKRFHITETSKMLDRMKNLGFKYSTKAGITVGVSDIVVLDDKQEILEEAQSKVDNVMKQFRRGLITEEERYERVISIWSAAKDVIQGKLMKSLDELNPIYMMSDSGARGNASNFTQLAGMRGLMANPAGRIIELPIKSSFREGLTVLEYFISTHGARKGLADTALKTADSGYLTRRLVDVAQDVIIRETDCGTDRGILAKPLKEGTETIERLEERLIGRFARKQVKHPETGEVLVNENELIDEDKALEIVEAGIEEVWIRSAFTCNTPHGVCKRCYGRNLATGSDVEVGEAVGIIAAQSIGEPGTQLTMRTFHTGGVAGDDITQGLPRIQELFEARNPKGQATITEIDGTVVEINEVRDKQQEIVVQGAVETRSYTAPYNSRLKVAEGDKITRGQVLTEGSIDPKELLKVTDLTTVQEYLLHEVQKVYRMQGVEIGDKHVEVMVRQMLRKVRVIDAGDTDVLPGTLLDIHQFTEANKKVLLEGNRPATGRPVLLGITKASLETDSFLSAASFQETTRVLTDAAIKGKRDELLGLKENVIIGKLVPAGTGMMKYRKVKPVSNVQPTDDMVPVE
T1 sequence (P06224 whole entry, chain 4 of 4): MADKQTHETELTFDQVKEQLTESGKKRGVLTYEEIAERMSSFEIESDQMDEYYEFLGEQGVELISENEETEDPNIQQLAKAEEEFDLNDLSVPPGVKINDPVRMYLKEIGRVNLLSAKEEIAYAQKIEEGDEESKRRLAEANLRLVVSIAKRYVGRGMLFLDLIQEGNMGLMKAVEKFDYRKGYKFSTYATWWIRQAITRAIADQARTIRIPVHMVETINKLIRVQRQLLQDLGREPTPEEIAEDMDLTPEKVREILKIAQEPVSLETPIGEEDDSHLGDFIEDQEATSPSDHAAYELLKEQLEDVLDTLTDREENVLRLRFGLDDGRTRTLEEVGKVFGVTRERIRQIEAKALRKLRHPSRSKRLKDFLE

[2] = target: T1, native sigmaA-RNA polymerase holoenzyme; experiment: EMSA; pRNA pre-annealed; 40 mM Tris-HCl pH 8.0, 5 mM MgCl2, 160 mM KCl, 1 mM DTT, heparin 80 ng/uL, ~10 nM RNA, plus RNAP storage buffer; 30 min at 37 C; native 7.5% PAGE (10% for Fig 12); conditions: protein: native; chain copies: 2;1;1;1; label: 5'-32P on 6S-1 RNA; pRNA annealed to 6S-1 RNA from nt 40 upstream
[3] = target: T2, sigmaA-RNA polymerase holoenzyme (native or His-tagged SG7 preparation, not specified for this assay) (Bacillus subtilis, UniProt P20429;P37870;P37871;P06224 1-314;1-1193;1-1199;1-371); experiment: EMSA; K1/2 printed only in graph; 40 mM Tris-HCl pH 8.0, 5 mM MgCl2, 160 mM KCl, 1 mM DTT, heparin 80 ng/uL, ~10 nM RNA, plus RNAP storage buffer; 30 min at 37 C; native 7.5% PAGE (10% for Fig 12); conditions: protein: native; chain copies: 2;1;1;1; label: 5'-32P
T2 sequence (P20429 whole entry, chain 1 of 4): as the sequence (P20429 whole entry, chain 1 of 4) above
T2 sequence (P37870 whole entry, chain 2 of 4): as the sequence (P37870 whole entry, chain 2 of 4) above
T2 sequence (P37871 whole entry, chain 3 of 4): as the sequence (P37871 whole entry, chain 3 of 4) above
T2 sequence (P06224 whole entry, chain 4 of 4): as the sequence (P06224 whole entry, chain 4 of 4) above

[4] = target: T1, native sigmaA-RNA polymerase holoenzyme; experiment: EMSA; pLNA pre-annealed; 40 mM Tris-HCl pH 8.0, 5 mM MgCl2, 160 mM KCl, 1 mM DTT, heparin 80 ng/uL, ~10 nM RNA, plus RNAP storage buffer; 30 min at 37 C; native 7.5% PAGE (10% for Fig 12); conditions: protein: native; chain copies: 2;1;1;1; label: 5'-32P on 6S-1 RNA; pLNA annealed to 6S-1 RNA from nt 40 upstream
[5] = target: T2, sigmaA-RNA polymerase holoenzyme …; experiment: EMSA; almost three-fold; K1/2 only in graph; 40 mM Tris-HCl pH 8.0, 5 mM MgCl2, 160 mM KCl, 1 mM DTT, heparin 80 ng/uL, ~10 nM RNA, plus RNAP storage buffer; 30 min at 37 C; native 7.5% PAGE (10% for Fig 12); conditions: protein: native; chain copies: 2;1;1;1; label: 5'-32P
[6] = target: T1, native sigmaA-RNA polymerase holoenzyme; experiment: EMSA; up to 3-fold with other RNAP preparations; 40 mM Tris-HCl pH 8.0, 5 mM MgCl2, 160 mM KCl, 1 mM DTT, heparin 80 ng/uL, ~10 nM RNA, plus RNAP storage buffer; 30 min at 37 C; native 7.5% PAGE (10% for Fig 12); conditions: protein: native; chain copies: 2;1;1;1; label: 5'-32P
[7] = target: T1, native sigmaA-RNA polymerase holoenzyme; experiment: EMSA; Kd printed only in graph; 40 mM Tris-HCl pH 8.0, 5 mM MgCl2, 160 mM KCl, 1 mM DTT, heparin 80 ng/uL, ~10 nM RNA, plus RNAP storage buffer; 30 min at 37 C; native 7.5% PAGE (10% for Fig 12); conditions: protein: native; chain copies: 2;1;1;1; label: 5'-32P

B1: 6S82cp RNA (structured_RNA)
RNA: GGGCACCCACCUGCUGAGAGCGGGUUCAAAACAAAGGAAAGCCACCUAGUUUUGACCGAACAUUUUUUUGAUUUGGGAGCCC
Q: For B1, which “apparent K (half saturation)” value ([1]; artificial loop capping P2) is on record?
A: ~1000 nM

B2: 6S78 RNA (structured_RNA)
RNA: CCUAGUUUUGACCGAACAUUUUUUUGAUUUGGGAGCCCGCAGGGCACCCACCUGCUGAGAGCGGGUUCAAAACAAAGG
Q: B2 was tested. Which “apparent K (half saturation)” value [1] did it give?
A: ~1000 nM

B3: wt 6S-1 RNA (190 nt) (structured_RNA)
RNA: AGUCCUGAUGUGUUAGUUGUACACCUAGUUUUGACCGAACAUUUUUUUGAUUUGGGAGCCCGCAUUUUUAAAUGGCGUACAUGCCUCUUUUCAUUCGGUAAAGAGGACUUACAAGAUUUAAAAGAGGGCACCCACCUGCUGAGAGCGGGUUCAAAACAAAGGAAAGCUGCAACGGCACUAUUGGGACUUU
Q: Which “apparent K (half saturation)” value ([1]; rod-shaped, central bubble flanked by two helical arms) does the source give for B3 here?
A: ~100 nM

B4: 6S-1 RNA:pRNA 14-mer (structured_RNA)
RNA 1: B3 RNA
RNA 2: GUUCGGUCAAAACU
Q: Does B4 bind [2]?
A: no binding

B5: C44/45 8M 6S-1 RNA (structured_RNA)
RNA: B3 RNA with U30C, U31A, U32A, A34G, U44C, U45C, U151C, A153U, A154U, A155G
Q: How did the binding signal [3] turn out when B5 was run?
A: ~1.5 fold lower affinity vs wt 8M

B6: 6S-1 RNA:pLNA 8-mer (mixed)
RNA: B3 RNA
DNA: GTTCGGTC
modifications: strand 2 all-LNA
Q: Does B6 bind [4]?
A: no binding

B7: C44/45 6M 6S-1 RNA (structured_RNA)
RNA: B3 RNA with U30C, U31A, U32A, A34G, U44C, U45C, A154U, A155G
Q: For B7, which binding signal [5] is on record?
A: ~3 fold lower affinity vs wt 6M

B8: 6S-1 RNA C44/45 (structured_RNA)
RNA: B3 RNA with U44C, U45C
Q: For B8, which binding signal [6] is on record?
A: ~2 fold lower affinity vs wt

B9: 6S-1 RNA A50U (structured_RNA)
RNA: B3 RNA with A50U
Q: B9 was tested. Which binding signal [7] did it give?
A: ~2 fold Kd increase vs wt

B10: 6S-1 RNA:pLNA 6-mer (mixed)
RNA: B3 RNA
DNA: GTTCGG
modifications: strand 2 LNA, iso-sequential to pRNA (first 6 nt inferred)
Q: Does B10 bind [4]?
A: no binding

B11: 6S-1 RNA:pLNA 7-mer (mixed)
RNA: B3 RNA
DNA: GTTCGGT
modifications: strand 2 LNA, iso-sequential to pRNA (first 7 nt inferred)
Q: Does B11 bind [4]?
A: no binding
